Molecular target: NLuc-CLR:RAMP3 (N-terminally nanoluciferase-tagged CLR co-expressed with RAMP3; AM2 receptor) (human) (UniProt Q16602)
Test: FRET or BRET

NLuc-CLR:RAMP3 (N-terminally nanoluciferase-tagged CLR co-expressed with RAMP3; AM2 receptor) (human), sequence (Q16602 23-461, chain 1 of 2): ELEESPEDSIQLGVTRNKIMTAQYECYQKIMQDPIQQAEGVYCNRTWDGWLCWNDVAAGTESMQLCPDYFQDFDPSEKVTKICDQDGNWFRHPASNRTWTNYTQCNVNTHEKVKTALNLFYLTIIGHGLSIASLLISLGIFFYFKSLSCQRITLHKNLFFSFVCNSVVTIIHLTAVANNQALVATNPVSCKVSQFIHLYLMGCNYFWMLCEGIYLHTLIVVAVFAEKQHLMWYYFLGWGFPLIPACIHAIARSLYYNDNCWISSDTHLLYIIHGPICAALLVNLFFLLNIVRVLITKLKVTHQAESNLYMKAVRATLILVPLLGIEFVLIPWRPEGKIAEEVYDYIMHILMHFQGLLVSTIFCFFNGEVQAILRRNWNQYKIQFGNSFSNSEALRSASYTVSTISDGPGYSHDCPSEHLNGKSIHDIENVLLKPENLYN
NLuc-CLR:RAMP3 (N-terminally nanoluciferase-tagged CLR co-expressed with RAMP3; AM2 receptor) (human), sequence (O60896 24-148, chain 2 of 2, further chain): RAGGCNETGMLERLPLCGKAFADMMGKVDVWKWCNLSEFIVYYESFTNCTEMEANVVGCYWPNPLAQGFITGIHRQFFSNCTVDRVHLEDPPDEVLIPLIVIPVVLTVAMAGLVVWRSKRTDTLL

Kd	dissociation half-life, fast component	dissociation half-life, slow component	half-life (t1/2) from the off-rate of the association kinetics analysis	Substance
7 nM	7 min	76 min	21 min	AM2/IMD-TAMRA (adrenomedullin 2/intermedin labeled with TAMRA on a Lys substituted at D35) (peptide)
26 nM	0.75 min	6.9 min	2.5 min	AM-TAMRA (adrenomedullin labeled with TAMRA on a Lys substituted at N40) (peptide)
